Test results published in article PMC3620106, “One-Step Chromatographic Purification of Helicobacter pylori Neutrophil-Activating Protein Expressed in Bacillus subtilis” (PLoS ONE, 2013).

Target: the molecule itself
Test: AUC; sedimentation velocity, HP-NAP at 0.3 mg/ml in D-PBS, pH 7.2, 41,000 rpm, 20°C, SEDFIT c(s); monomer mass by LC-MS

B1: Helicobacter pylori neutrophil-activating protein (HP-NAP), recombinant, expressed in Bacillus subtilis (natural protein)
chain: MKTFEILKHLQADAIVLFMKVHNFHWNVKGTDFFNVHKATEEIYEEFADMFDDLAERIVQLGHHPLVTLSEAIKLTRVKEETKTSFHSKDIFKEILEDYKYLEKEFKELSNTAEKEGDKVTVTYADDQLAKLQKSIWMLQAHLA
notes: monomer 16.934 kDa by LC-MS (theoretical 16.933 kDa); napA was cut from pET28a-His-NAP with NdeI and XhoI and cloned into pRPA; The measured monomer mass (16.934 kDa) fits the theoretical mass of the whole untagged protein (16.933 kDa); also called recombinant HP-NAP; purified HP-NAP; source: B. subtilis DB104 harboring pRPA-NAP; copies: 12
  stoichiometry N: 12
